Patent publication US20210309722A1

Target: GLP-1 receptor
Test: cell-based or functional assay

EC50, cAMP production (cAMP-inducible luciferase reporter) in HEK293 cells expressing GLP1R: 3.1 pM
Substance: native human GLP-1 (7-37) (from UniProt P01275 21-180) (peptide)
